Key:
[1] = tested on: collagen-antibody induced arthritis; assay: collagen-antibody induced arthritis model; type: in vivo, C57BL6J male mice
Method: C57BL6J male mice were injected intraperitoneally with a cocktail of arthritogenic anti-type II collagen (2 mg/mouse) at day 0. At day 3, mice received an injection of lipopolysaccharide from bacterial cells walls of E. coli 055: B5. The severity of arthritis was evaluated every other day on each paw with a score from 0 to 4, for a maximal score of 16 by animal (0=normal joint, 1=moderate redness and slight swelling or swelling of one or two digits, 2=moderate redness and moderate paw swelling or swelling more than three digits, 3=redness and swelling from tarsal joints to metatarsal joints, 4=severe redness and severe swelling of the entire paw). Hindpaw swelling was measured at the same time by plethysmography. Paw volume determined prior to disease induction was used as the baseline. The development of arthritis was analyzed by histological assessment. Hindpaws were dissected then fixed in 4% formalin (Labonord). Hindpaws were further decalcified in 10% EDTA for 1 month and embedded in paraffin blocks. Five μm-thick tissue sections were cut and two stainings were performed, hematoxylin, eosin and toluidine blue. Histological examination was carried out blindly by three independent observers. Synovium from ankle joint was graded on a scale of 0 to 3 (with 0=normal and 3=major changes) for synovial hyperplasia (width of lining layer) and tissue cell infiltration. […]

[2] = AADAT activity test (transformation of KYNU into KYNA and XANA); type: biochemical; settings: 15 min in the presence of KYNU (1000 μM), FIG. 3F
Method: The activity test is based on the disappearance of kynurenine and 3-hydroxykynurenin which are substrates of AADAT. A reaction mixture (50 μL final volume) containing 10 mM L-kynurenine or 3-hydroxykynurenin, 2 mM α-oxoglutarate, 40 μM PLP (pyridoxal 5′-phosphate) and 0 or 1 μL of the purified protein sample prepared in buffer 100 mM potassium phosphate (pH 7.4). Then, the mixture was incubated at 37° C. for 15 min, and the reaction was stopped by the addition of an equal volume of 30% acetic acid. The supernatant of the reaction mixture, obtained by centrifugation at 3000 g for 10 min at 4° C., was mixed equally with Ehrlich's solution and incubated 15 min at room temperature to have a colorimetric reaction. In parallel, a standard range of kynurenine or 3-hydroxykynurenin from 0 μM to 1000 μM was made under the same conditions. The amount of kynurenine or 3-hydroxykynurenin present in the sample was measured with a spectrophotometer at an OD of 492 nm and calculated using the standard range (FIG. 3E). A verification of the production of KYNA and XANA in vitro via the action of our enzyme during 15 min in the presence of KYNU (1000 μM) was carried out (FIG. 3F).

B1: AADAT: Recombinant murine alpha-aminoadipate aminotransferase (SEQ ID NO:13) produced in E. coli and purified by affinity chromatography (protein, listed as Mus musculus)
chain: MNYSRFLTATSLARKPSPIRTTADILSKAPKTLISLAPGSPNPSMFPFKSAAFTVENGSTIRFEDDLIKRALQYSPSYGIPELLSWLKQFQVKLHNPPTVNYPPNQGQMDLCITSGCQDGLCKAFEMLINPGDTILVNEPLFPGTLYAMKPLGCNIINVPSDEHGIIPEGLKKILSQWKPEDSKDPTKKTPKFLYTVPNGNNPTGNSLTGDRKKEIYELARKYDFLIIEDDPYYFLQFSKPWEPTFLSMDVDGRVIRADTFSKTVSSGLRVGFMTGPKTLIQNIVLHTQVSSVHACTLSQLMILQLLHQWGEEGFLAHIDRTIDFYKNQRDSILAAADKWLRGLAEWHVPKAGMFLWIKVKGISDTKQLIEEKAIEREVLLVPGNGFFIDGSAPTSFFRASFSLATPAQMDTAFQRLAQLIKESL
For B1, the arthritis severity ([1]; daily i.p. recombinant AADAT ~50 μg/d vs vehicle, confirmed by oedema swelling measure and histology (FIG. 4)) was “drastically reduced”, the “maximal clinical score mean” value ([1]; score 0 to 4 per paw, maximal 16 by animal, daily i.p. recombinant AADAT ~50 μg/d, 2 experiments, 8 mice per group, vehicle 6.9) was 2.6 and the “transformation of KYNU into KYNA and XANA in vitro” value [2] was “dose effect can be observed”.

From US20250367269A1, “KYNURENINE AMINOTRANSFERASE AND PRODUCTS THEREOF FOR THE TREATMENT OF ARTHRITIC DISEASES” (Institut National de Recherche Pour L'Agriculture, …, priority 2022, published 2025)
